Measurements from patent US20240400722A1, “Chemically Inducible Heterodimerizing System and A Method For Generation Thereof” (Miltenyi Biotec B.V. & Co. KG, priority 2023, published 2024).
“Also recorded” adds a separate entry of the source.

Columns and labels:
acVHH-V104D [1] = assay: NanoBiT protein complementation assay in Jurkat T cells, intracellular binding to acVHH-V104D; assay type: cell-based, llama; conditions: for background signal at very low concentrations of caffeine / background signal in the absence of caffeine: compared with acVHH-WT/acVHH-WT homodimers
Source text: (§1) The ac VHH variants were N-terminally fused to an extracellular globular domain used to assess expression, as well as a transmembrane domain, and C-terminally fused to a subunit of the split NanoLuc (NanoBiT® system), Promega. Thus, the resulting fusion protein consisted of an extracellular globular domain, followed by a transmembrane domain and intracellular ac VHH variants followed by a subunit of split NanoLuc luciferase.
The different chains built were as follows: the first polypeptide chain comprised truncated EGFR extracellular and transmembrane domain, followed by a 2×G4S linker and cither ac VHH-V104D or ac VHH-WT, followed by a linker (SEQ ID NO:31) and 11S NanoBiT® “Large BiT”, whereas the second polypeptide chain comprised truncated HER2 extracellular and transmembrane domain, followed by a linker (SEQ ID NO:32) and either ac VHH-V104D or ac VHH-WT or ac VHH-M1 or acVHH-M2 or dfM1-1 or dfM1-2, followed by a linker (SEQ ID NO:33) and 114 NanoBiT® “Small BiT”. The sequence of the truncated HER2 extracellular and transmembrane domain involved the amino acids at positions 339-683 according to the deposited Uniprot sequence (ID P04626). The sequence of the truncated EGFR extracellular and transmembrane domain involved the amino acids at positions 334-675 according to the deposited Uniprot sequence (ID P00533). The principle of the assay is as follows: upon binding of (i.e. dimerization) of the respective ac VHH variants, the fused NanoLuc luciferase subunits are brought into close proximity (the two subunits being fused to the two different polypeptide chains, respectively), thus resulting in a functional luciferase enzyme, whose activity can be measured.
In vitro transcription was performed with 200 ng of purified PCR product using the mMessage mMachine T7 Ultra Kit (Ambion) according to the manufacturer's instructions. The resulting mRNAs were column purified with the RNeasy Kit (Qiagen), aliquoted to 5 μg and frozen at −80° C. until electroporation. Jurkat T cells were electroporated with 5 μg mRNA per chain (10 μg mRNA total) using the Gene Pulser (Bio-Rad) and the following parameters: square wave protocol, 500 V, 5 ms, 4 mm cuvettes.
Intracellular function of the dimers was assessed with the Nano-Glo® Luciferase Assay System (Promega).

[2] = Preparative size exclusion chromatography of acVHH variants; assay type: physicochemical; conditions: HiLoad Superdex 75 pg, elution in PBS
Procedure: Protein aggregates were removed via preparative size exclusion chromatography (SEC). The samples were first centrifuged at 16 000 rpm for 3 min to remove large aggregates and the supernatant was loaded onto a HiLoad Superdex 75 pg column connected to a Bio-Rad NG-C chromatography system. Elution was performed in PBS and the fractions containing proteins based on absorbance at 280 nm were pooled, concentrated as mentioned above and stored at −30° C.

acVHH-V104D [3] = assay: Yeast surface display binding of acVHH variants to soluble acVHH-V104D; parameters: species or system llama; conditions: for background binding signal in the absence of any small molecule: 500 nM soluble acVHH-V104D, buffer only (control, PBSA); for affinity towards acVHH-V104D: summary statement, interaction dependent on caffeine; for affinity (KD) to acVHH-V104D: titration with soluble acVHH-V104D in the presence of 30 μM caffeine; for dependency of heterodimerization with acVHH-V104D on the presence of caffeine: yeast display flow cytometry, with or without caffeine
Procedure: The staining for flow cytometry characterization was performed in PBSA (PBS containing 15 μM bovine serum albumin). […] In addition, controls with buffer only (containing neither an ac VHH variant nor caffeine) were included. After a washing step the cells were stained for 20 min at 4° C. and shaking with either streptavidin-Alexa Fluor 647 (Invitrogen) or Penta-His-Alexa Fluor 647 (Qiagen) to assess acVHH-V104D or acVHH-WT binding, as well as anti-HA-Alexa Fluor 488 (clone 16B12, Biolegend) or anti-c-myc AlexaFluor 488 (9E10, Thermofisher) to assess display (anti-HA) or full-length display (anti-c-myc) of the acVHH variants, respectively. After a final washing step, the cells were analyzed with a CytoFLEX S flow cytometer (Beckman Coulter).
Expression of the acVHH variants on yeast was induced by culturing the cells in SG-CAA medium (20 g/L galactose, 2 g/L glucose, 6.7 g/L yeast nitrogen base, 5 g/L bacto casamino acids, 10.2 g/L Na2HPO4*7 H2O, 8.56 g/L NaH2PO4*H2O) overnight at 20° C. and 180 rpm. Detection of full-length proteins on the surface of the cells was carried out by staining the cells with anti-c-myc AlexaFluor 488 (9E10, Thermo Fisher). […] After a washing step with PBSA, they were stained with an anti-HA-Alexa Fluor 488 (BioLegend) to gate for displaying yeast cells and the geometric mean fluorescence intensity (gMFI) of binding to acVHH-V104D, detected by co-staining with a Penta-His-Alexa Fluor 647 (Qiagen) (recognizing the His-tag on acVHH-V104D) was measured.
Expression of the variants on yeast was carried out in SG-CAA as described above. Full length display was assessed by staining with an anti-c-myc AlexaFluor 488 (9E10, Thermo Fisher) and binding to soluble acVHH-V104D was assessed by staining with Penta-His-Alexa Fluor 647 (Qiagen).
56 clones of the library were sequenced as explained in Example 2. Only 2 variants were obtained, namely dfM1-1 and dfM1-2. Their binding and affinity to soluble acVHH-V104D as well as full length display was assessed with yeast surface display as described in Example 2.

acVHH-WT = assay: NanoBiT protein complementation assay in Jurkat T cells, acVHH-WT homodimer; assay type: cell-based, llama
Source text: as §1
The different chains built were as follows: the first polypeptide chain comprised truncated EGFR extracellular and transmembrane domain, followed by a 2×G4S linker and cither ac VHH-V104D or ac VHH-WT, followed by a linker (SEQ ID NO:31) and 11S NanoBiT® “Large BiT”, whereas the second polypeptide chain comprised truncated HER2 extracellular and transmembrane domain, followed by a linker (SEQ ID NO:32) and either ac VHH-V104D or ac VHH-WT or ac VHH-M1 or acVHH-M2 or dfM1-1 or dfM1-2, followed by a linker (SEQ ID NO:33) and 114 NanoBiT® “Small BiT”. […] The principle of the assay is as follows: upon binding of (i.e. dimerization) of the respective ac VHH variants, the fused NanoLuc luciferase subunits are brought into close proximity (the two subunits being fused to the two different polypeptide chains, respectively), thus resulting in a functional luciferase enzyme, whose activity can be measured. […]

[4] = +/- 30 μM caffeine, normalized to acVHH-WT homodimer with caffeine
[5] = increasing concentrations of caffeine

| Molecule | intracellular binding with acVHH-V104D (acVHH-V104D [1]; [4]) | intracellular binding with acVHH-V104D (acVHH-V104D [1]; [5]) | preparative SEC profile [2] | background signal at very low concentrations of caffeine (acVHH-V104D [1]) | background signal in the absence of caffeine (acVHH-V104D [1]) | background binding signal in the absence of any small molecule (acVHH-V104D [3]) | affinity towards acVHH-V104D (acVHH-V104D [3]) | affinity (KD) to acVHH-V104D (acVHH-V104D [3]) | dependency of heterodimerization with acVHH-V104D on the presence of caffeine (acVHH-V104D [3]) | intracellular homodimerization of acVHH-WT (acVHH-WT; +/- 30 μM caffeine) | intracellular homodimerization of acVHH-WT (acVHH-WT; [5]) |
| --- | --- | --- | --- | --- | --- | --- | --- | --- | --- | --- | --- |
| acVHH-V104D: acVHH-WT variant with point mutation V104D, SEQ ID NO:2; first antigen binding domain AB1 (protein) VHH: QVQLVESGGGLVQAGGSLRLSCTASGRTGTIYSMAWFRQAPGKEREFLATVGWSSGITYYMDSVKGRFTISRDKGKNTVYLQMDSLKPEDTAVYYCTATRAYSDGYDYWGQGTQVTVSS | does not show any detectable homodimerization | does not show any detectable homodimerization | monomeric profile; also recorded: elutes as a defined monomeric peak | – | – | – | – | – | – | – | – |
| acVHH-M1 (protein, left off: large carriers; small tags and cut ends) QVQLVESGGGLVQAGGSLRLSCTASGRTGTIYSMAWFRQAPGKEREFLAPVALGLQSTYYMDSVKGRFTISRDKGKNTVYLQMDSLKPEDTAVYYCTATRAYSVGYDYWGQGTQVTVSS | weak | – | – | strongly reduced | strongly reduced | virtual absence of any background signal; also recorded: does not trigger any detectable signal | high affinity in the nanomolar range | low nM range | clear dependency | – | – |
| acVHH-M2 (protein, left off: large carriers; small tags and cut ends) QVQLVESGGGLVQAGGSLRLSCTASGRTGTIYSMAWFRQAPGKEREFLAQQRWLFRRTYYMDSVKGRFTISRDKGKNTVYLQMDSLKPEDTAVYYCTATRAYSVGYDYWGQGTQVTVSS | not detectable | – | – | – | strongly reduced | virtual absence of any background signal | high affinity in the nanomolar range | – | clear dependency | – | – |
| dfM1-1 (protein, left off: large carriers; small tags and cut ends) QVQLVESGGGLVQAGGSLRLSATAYGKTGTIYSMAWFRQAPGKEREFLAPVALGLQSTYYMDSVKGRFTISRDKGKNTVYLQMDSLKPEDTAVYYAAATRAYSVGYDYWGQGTQVTVTS | efficient heterodimerization | – | – | strongly reduced | strongly reduced | does not trigger any detectable signal | high affinity in the nanomolar range | low nM range | – | – | – |
| dfM1-2 (protein, left off: large carriers; small tags and cut ends) EVQLVESGGGLVQAGGSLRLSATAYGRTGTIYSMAWFRQAPGKEREFLAPVALGLQSTYYMDSVKGRFTISRDKGKNTVYLQMDSLKPEDTAVYYAAATRAYSVGYDYWGQGTQVTVSS | efficient heterodimerization | – | – | strongly reduced | strongly reduced | does not trigger any detectable signal | high affinity in the nanomolar range | low nM range | – | – | – |
| acVHH-WT: existing thermally stable caffeine-specific single domain antibody fragment from llama used for homodimerization, SEQ ID NO:1 (protein) VHH: QVQLVESGGGLVQAGGSLRLSCTASGRTGTIYSMAWFRQAPGKEREFLATVGWSSGITYYMDSVKGRFTISRDKGKNTVYLQMDSLKPEDTAVYYCTATRAYSVGYDYWGQGTQVTVSS | – | very weak heterodimerization | – | – | – | – | – | – | – | shows homodimerization, which is enhanced by addition of caffeine | shows homodimerization, which is enhanced by addition of caffeine |
